The results in this text go back to publication PMC3604701.

Read-outs that look alike come from different tables or passages of the source.

Experiment [1] concerns the target CoREST (RCOR1) residues 286-482 (linker region + SANT2 domain) (UniProt Q9UKL0). The experiment can be described thus: SPR. The settings on record: pH 7.4; no added salt; not stated numerically; 50 mM sodium phosphate.
For experiment [2] the target is unchanged. Put plainly: ITC. The settings on record: pH 7.4, no added salt, not stated numerically, 50 mM sodium phosphate.
Experiment [3] has the same target. Put plainly: ITC. To be noted: pH 7.4, 25 °C, no added salt, not stated numerically.
Experiment [4] has the same target. Put plainly: ITC. To be noted: pH 7.4; 25 °C; no added salt; not stated numerically; 50 mM sodium phosphate.
The target of experiment [5] is LSD1 (residues 151–852), lysine-specific demethylase 1 (human) (UniProt O60341). Put plainly: ITC.
Experiment [6] has the same target. The experiment can be described thus: ITC. This is another data set of the same source.
For experiment [7] the target is unchanged. The experiment can be described thus: ITC. The source holds these as a separate data set.
For experiment [8] the target is unchanged. The experiment can be described thus: ITC. This is another data set of the same source.
Experiment [9] shares this target. The experiment can be described thus: ITC. This is another data set of the same source. (In general: Isothermal titration calorimetry measures the heat released or taken up as one component is titrated into another.)
Experiment [10] has the same target. The experiment can be described thus: ITC. The source holds these as a separate data set.
Experiment [11] has the same target. The experiment can be described thus: ITC. This is another data set of the same source.
Experiment [12] has the same target. Put plainly: ITC. This is another data set of the same source.
The target is the same in experiment [13]. Put plainly: ITC. This is another data set of the same source.
Experiment [14] has the same target. The experiment can be described thus: ITC. The source holds these as a separate data set.
For experiment [15] the target is unchanged. Put plainly: ITC. The source holds these as a separate data set.
Experiment [16] has the same target. Put plainly: ITC. The source holds these as a separate data set.
For experiment [17] the target is unchanged. The experiment can be described thus: ITC. The source holds these as a separate data set.

Sequence of UniProt Q9UKL0 (Q9UKL0 whole entry, the tested form may be a part): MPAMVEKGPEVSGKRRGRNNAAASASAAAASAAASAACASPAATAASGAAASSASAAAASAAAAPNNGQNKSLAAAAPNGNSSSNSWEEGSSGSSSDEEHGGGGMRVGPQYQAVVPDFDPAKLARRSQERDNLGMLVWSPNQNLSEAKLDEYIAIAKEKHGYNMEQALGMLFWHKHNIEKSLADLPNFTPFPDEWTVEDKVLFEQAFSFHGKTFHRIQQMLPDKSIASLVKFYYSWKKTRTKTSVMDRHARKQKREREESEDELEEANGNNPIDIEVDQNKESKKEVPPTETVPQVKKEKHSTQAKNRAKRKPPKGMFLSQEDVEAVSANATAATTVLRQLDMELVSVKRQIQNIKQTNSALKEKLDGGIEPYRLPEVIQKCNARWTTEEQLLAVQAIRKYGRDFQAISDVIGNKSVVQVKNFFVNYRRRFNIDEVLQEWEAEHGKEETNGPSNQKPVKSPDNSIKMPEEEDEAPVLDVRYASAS

In general, koff refers to the first-order rate constant of dissociation. A word on the kon: it is the rate constant with which the complex forms. Consider “LSD1 (KDM1A, lysine-specific histone demethylase 1) residues 151-852”, for which the koff in [1] worked out at 7.78e-05 s⁻¹. The on-rate constant (kon) in [1] worked out at 56300 M⁻¹ s⁻¹. Further, the ΔG in [2] (15 °C) is -10.1 kcal/mol; in experiment [2] (25 °C), -10.6 kcal/mol; in experiment [2] (30 °C), -11.7 kcal/mol; in experiment [2] (35 °C), -11.4 kcal/mol; in [3] (50 mM ACES), -10.1 kcal/mol; in experiment [3] (50 mM HEPES), -10.9 kcal/mol. Besides, the ΔG in [3] (50 mM PIPES) is -11.2 kcal/mol; in experiment [3] (50 mM Tris), -10.8 kcal/mol; in experiment [3] (50 mM sodium phosphate) it was -10.6 kcal/mol; in [4], -11.6 kcal/mol. For the same substance, the Ka in experiment [2] (25 °C) amounted to 6.29e+07 M⁻¹. Besides, the ΔH in experiment [2] (25 °C) is -21.3 kcal/mol; in experiment [4], -12.1 kcal/mol. The ΔHcal is -12.6 kcal/mol in experiment [3] (50 mM ACES); -15.2 kcal/mol in experiment [3] (50 mM HEPES); -17.4 kcal/mol in experiment [3] (50 mM PIPES); -10.9 kcal/mol in experiment [3] (50 mM Tris); -19.5 kcal/mol in experiment [3] (50 mM sodium phosphate).
By Kd is commonly meant the constant that tells how readily two partners part at equilibrium. Higher therefore signals lower affinity. What is called stoichiometry N is a count of units in the complex or per binding partner. Turning to “linker region^293–380 of CoREST (domain or fragment)”, in experiment [5], the Kd came out at 7.78 nM, the dH was -13.5 kcal/mol and the stoichiometry N is 0.96.
With “CoREST^286–482 (linker region and SANT2 domain) (domain or fragment)”, the dissociation constant Kd in experiment [6] amounted to 6.75 nM; in experiment [7], 3.18 nM; in experiment [8] it was 17.3 nM; in [9], 4.18 nM; in [10], 21.7 nM; in experiment [11], 21.2 nM. The Kd in experiment [12] was determined as 7.66 nM; in experiment [13], 3.7 nM; in experiment [14] it was 8.54 nM; in [5], 15.9 nM; in experiment [15], 8.03 nM; in experiment [16], 5.84 nM. Besides, the Kd in experiment [17] was determined as 11.7 nM. For the same substance, the dH in [6] is -12.9 kcal/mol; in experiment [7], -12.1 kcal/mol; in [9], -8.56 kcal/mol; in experiment [10], -4.24 kcal/mol; in experiment [12], -15.6 kcal/mol; in experiment [13], -16.1 kcal/mol. For the same substance, the dH in experiment [5] was -21.3 kcal/mol; in experiment [15], -20.2 kcal/mol. Also, the stoichiometry N in experiment [6] was 1; in [7], 1.01; in [8] it was 1.11; in experiment [9] it was 0.9; in [10], 0.99; in [11], 0.93. The stoichiometry N in experiment [12] is 1; in experiment [13] it was 1.03; in [14], 0.92; in [5], 1.14; in experiment [15], 0.97; in [16], 0.91. The substance further registered a stoichiometry N in experiment [17] of 1.01. For the same substance, the dH (ΔHcal) is -19.5 kcal/mol in experiment [8]; -12.6 kcal/mol in experiment [11]; -10.9 kcal/mol in experiment [14]; -17.4 kcal/mol in experiment [16]; -15.2 kcal/mol in experiment [17]. Further, the Ka in experiment [5] turned out to be 6.29e+07 M⁻¹.
